What all share (experiment): ELISA, yeast Fab supernatant
The target of one assay is T1, hu-IL-36β (human).
T1 sequence: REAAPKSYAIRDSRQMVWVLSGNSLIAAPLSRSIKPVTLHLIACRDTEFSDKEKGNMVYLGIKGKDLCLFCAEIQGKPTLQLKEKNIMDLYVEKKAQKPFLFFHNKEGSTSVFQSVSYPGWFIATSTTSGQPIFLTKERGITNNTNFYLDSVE

In another assay the target is hu-IL-36α (human) (UniProt Q9UHA7).
A further assay has as its target hu-IL-36γ (human) (UniProt Q9NZH8).

This note sets out measurements from patent US20200199217A1.

Sequence of hu-IL-36γ (human) (Q9NZH8 18-169 limits assumed): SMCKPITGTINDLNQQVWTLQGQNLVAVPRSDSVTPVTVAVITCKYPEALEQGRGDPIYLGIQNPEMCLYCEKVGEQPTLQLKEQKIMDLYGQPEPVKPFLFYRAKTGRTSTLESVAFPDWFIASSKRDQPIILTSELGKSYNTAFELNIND
Sequence of hu-IL-36α (human) (Q9UHA7 6-158 limits assumed): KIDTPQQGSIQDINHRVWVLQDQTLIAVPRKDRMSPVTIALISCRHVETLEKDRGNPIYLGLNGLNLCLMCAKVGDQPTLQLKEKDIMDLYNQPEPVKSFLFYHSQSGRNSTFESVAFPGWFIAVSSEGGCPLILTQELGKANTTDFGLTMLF

B1: mAb2.0 Fab (Fab, V domains shown)
VH: QLQLQESGPGLVKPSETLSLTCTVSGGSISTSSYYWGWIRQPPGKGLEWIGSIYYTGNTYYNPSLKSRVTISVDTSKNQFSLKLSSVTAADTAVYYCARVRYGVGVPRYFDPWGQGTLVTVSS
VL: QSVLTQPPSVSGAPGQRVTISCTGSSSNIGAHYDVHWYQQLPGTAPKLLIYGNDNRPSGVPDRFSGSKSGTSASLAITGLQAEDEADYYCQSYDYSLSGYVFGGGTKLTVL
Take B1: the ELISA OD450 with hu-IL-36β (human) is 0.0604 OD450.

B2: mAb5.0 Fab (Fab, V domains shown)
VH: EVQLLESGGGLVQPGGSLRLSCAASGFTFSTYAMSWVRQAPGKGLEWVSGISGGSGYTYYADSVKGRFTISRDNSKNTLYLQMNSLRAEDTAVYYCARVVTYRDPPASFDYWGQGTLVTVSS
VL: QSVLTQPPSVSGAPGQRVTISCTGSSSNIGAHYDVHWYQQLPGTAPKLLIYGNDNRPSGVPDRFSGSKSGTSASLAITGLQAEDEADYYCQSYDYSLKAYVFGGGTKLTVL
In the assay with hu-IL-36β (human), B2 registered an ELISA OD450 of 0.129 OD450.

B3: mAb3.0 Fab (Fab, V domains shown)
VH: QLQLQESGPGLVKPSETLSLTCTVSGGSISSTSYYWGWIRQPPGKGLEWIGSIHYSGNTYYNPSLKSRVTISVDTSKNQFSLKLSSVTAADTAVYYCARVHYGGYIPRRFDHWGQGTLVTVSS
VL: QSVLTQPPSVSGAPGQRVTISCTGSSSNIGAGYDVHWYQQLPGTAPKLLIYGNTNRPSGVPDRFSGSKSGTSASLAITGLQAEDEADYYCQSYDYSLRGYVFGGGTKLTVL
Consider B3, for which the ELISA OD450 with hu-IL-36β (human) is 0.11 OD450.

B4: mAb1.0 Fab (Fab, V domains shown)
VH: QVQLVESGGGVVQPGRSLRLSCAASGFSFSAYAMHWVRQAPGKGLEWVAVISYDGTNEYYADSVKGRFTISRDNSKNTLYLQMNSLRAEDTAVYYCARGIRIFTSYFDSWGQGTLVTVSS
VL: QSVLTQPPSVSGAPGQRVTISCTGSSSNIGAHYDVHWYQQLPGTAPKLLIYSNNNRPSGVPDRFSGSKSGTSASLAITGLQAEDEADYYCQSYDYSLRGYVFGGGTKLTVL
Molecule B4 displayed an ELISA OD450 with hu-IL-36β (human) of 0.0523 OD450.

B5: mAb6.0 Fab (Fab, V domains shown)
VH: QLQLQESGPGLVKPSETLSLTCTVSGGSITSSNYYWGWIRQPPGKGLEWIGSIDYTGSTYYNPSLKSRVTISVDTSKNQFSLKLSSVTAADTAVYYCARGKYYETYLGFDVWGQGTLVTVSS
VL: QSVLTQPPSVSGAPGQRVTISCTGSSSNIGAGYDVHWYQQLPGTAPKLLIYGNTNRPSGVPDRFSGSKSGTSASLAITGLQAEDEADYYCQSYDISLSGWVFGGGTKLTVL
Turning to B5, the results for the ELISA OD450 with hu-IL-36α (human) and in the assay with hu-IL-36γ (human) were 0.0638 OD450 and 0.0656 OD450, respectively.

B6: mAb4.0 Fab (Fab, V domains shown)
VH: QLQLQESGPGLVKPSETLSLTCTVSGGSIGSRSYYWGWIRQPPGKGLEWIGSIHYSGTTYYNPSLKSRVTISVDTSKNQFSLKLSSVTAADTAVYYCARVAPSYPRVFDYWGQGTLVTVSS
VL: QSVLTQPPSVSGAPGQRVTISCTGSSSNIGAGYDVHWYQQLPGTAPKLLIYGNRNRPSGVPDRFSGSKSGTSASLAITGLQAEDEADYYCQSYDYSLRVYVFGGGTKLTVL
In the assay with hu-IL-36β (human), B6 had an ELISA OD450 of 0.0513 OD450.

B7: mAb7.0 Fab (Fab, V domains shown)
VH: QVQLVESGGGVVQPGRSLRLSCAASGFTFSSYGMHWVRQAPGKGLEWVAVISYGGSERYYADSVKGRFTISRDNSKNTLYLQMNSLRAEDTAVYYCAREPWYSSRGWTGYGFDVWGQGTLVTVSS
VL: EIVLTQSPGTLSLSPGERATLSCRASQSVSSNYLAWYQQKPGQAPKLLIYSASSLQSGVPSRFSGSGSGTDFTLTISSLQPEDFATYYCQQTYSYPPTFGQGTKVEIK
On to B7, for which the ELISA OD450 was determined as 0.0604 OD450 with hu-IL-36α (human) and 0.0724 OD450 in the assay with hu-IL-36γ (human).

B8: mAb8.0 Fab (Fab, V domains shown)
VH: QVQLVQSGAEVKKPGSSVKVSCKASGGTFSNYAISWVRQAPGQGLEWMGGILPILGTVDYAQKFQGRVTITADESTSTAYMELSSLRSEDTAVYYCAREPWYRLGAFDVWGQGTLVTVSS
VL: DIQMTQSPSSLSASVGDRVTITCRASQTIYKYLNWYQQKPGKAPKLLIYAASSLQSGVPSRFSGSGSGTDFTLTISSLQPEDFATYYCQQYSSIPYTFGQGTKVEIK
Consider B8, for which the results for the ELISA OD450 with hu-IL-36α (human) and with hu-IL-36γ (human) were 0.0698 OD450 and 0.073 OD450, respectively.
